Experiments:
Test in all cases: cell-based or functional assay
[1] = target: subtilisin 309 variant S99SD + S99A + P129PR (B. lentus) (UniProt P29600)
[2] = target: subtilisin 309 variant S99SD + S99A + L217LP (B. lentus) (UniProt P29600)
[3] = target: subtilisin 309 variant S99SD + S99A + T143K (B. lentus) (UniProt P29600)
[4] = target: subtilisin 309 variant S99SD + S99A + S216SDP (B. lentus) (UniProt P29600)
[5] = target: subtilisin 309 variant S99SD + S99A + L42LN (B. lentus) (UniProt P29600)
[6] = target: subtilisin 309 variant A98AI+A98G+S99H+G100S+S101A (B. lentus) (UniProt P29600)
[7] = target: subtilisin 309 variant S99SE (B. lentus) (UniProt P29600)
[8] = target: subtilisin 309 variant S99SQ + S99T (B. lentus) (UniProt P29600)
[9] = target: subtilisin 309 variant S99SD + M222S (B. lentus) (UniProt P29600)
[10] = target: subtilisin 309 variant S99SD + S99A (B. lentus) (UniProt P29600)
[11] = target: subtilisin 309 variant S99SR + S99T (B. lentus) (UniProt P29600)
[12] = target: subtilisin 309 variant S99SD + N76D + A194P + A230V (B. lentus) (UniProt P29600)
[13] = target: subtilisin 309 variant S99SD (B. lentus) (UniProt P29600)
[14] = target: subtilisin 309 variant S99SD + S99A + L217F + A228V + A230V (B. lentus) (UniProt P29600)
[15] = target: subtilisin 309 variant A98AT + Y167A + R170S + A194P (B. lentus) (UniProt P29600)
[16] = target: subtilisin 309 variant S99SD + S99A + A133E (B. lentus) (UniProt P29600)
[17] = target: subtilisin 309 variant S99SD + S99A + S216SP (B. lentus) (UniProt P29600)
[18] = target: Savinase (subtilisin 309 from B. lentus) (B. lentus) (UniProt P29600)
[19] = target: subtilisin 309 variant S99SD + S99A + P131T (B. lentus) (UniProt P29600)
[20] = target: subtilisin 309 variant S99SD + S99A + P129PD (B. lentus) (UniProt P29600)
[21] = target: subtilisin 309 variant S99SN (B. lentus) (UniProt P29600)

Residual Activity (%) [1]: 21% | Residual Activity (%) [2]: 97% | Residual Activity (%) [3]: 23% | Residual Activity (%) [4]: 35% | Residual Activity (%) [5]: 69.2% | Residual Activity (%) [6]: 22% | Residual Activity (%) [7]: 27% | Residual Activity (%) [8]: 25% | Residual Activity (%) [9]: 25% | Residual Activity (%) [10]: 27.3% | Residual Activity (%) [11]: 67.7% | Residual Activity (%) [12]: 18.4% | Residual Activity (%) [13]: 25% | Residual Activity (%) [14]: 12% | Residual Activity (%) [15]: 88% | Residual Activity (%) [16]: 39% | Residual Activity (%) [17]: 29.2% | Residual Activity (%) [18]: < 5% | Residual Activity (%) [19]: 35.6% | Residual Activity (%) [20]: 50% | Residual Activity (%) [21]: 19%
Substance: trypsin inhibitor type IV-0 (Ovo-inhibitor) (from UniProt P10184 69-517)

Reference: EP1244779B1
